The results in this text go back to patent publication US8415106B2, “Cell-based screen for agents useful for reducing neuronal demyelination or promoting neuronal remyelination” (Myelin Repair Foundation, Inc., priority 2005, dated 2013).

The subject of the assay is developing oligodendrocytes and myelin. As to the kind of experiment: IFN-γ-overexpressing mice crossed to PLP/SOCS1 mice: tremor, oligodendrocyte density, G ratio, unmyelinated axons at postnatal day 21. Format: in vivo. The conditions noted are these: for Incidence of tremor: 172 × PLP/SOCS1 system. The source says:
The transgenic mice MBP/IFN-γ and GFAP/tTA×TRE/IFN-γ (lines 184/110 and 184/67) that overexpress IFN-γ in the CNS have been described elsewhere (Corbin et al., 1996; Gao et al., 2000; Lin et al., 2004, 2005). Briefly, MBP/IFN-γ mice are transgenic animals in which IFN-γ expression is driven by the myelin basic protein (MBP) transcriptional control region (Gao et al., 2000). GFAP/tTA×TRE/IFN-γ are double-transgenic mice obtained by mating single-transgenic GFAP/tTA to single-transgenic TRE/IFN-γ (lines 110 and 67) mice. The two TRE/IFN-γ mouse lines, line 110 and line 67, used in the experiments produce different amounts of IFN-γ when crossed to GFAP/tTA mice (184/110 and 184/67) (Lin et al., 2004, 2005). GFAP/tTA×TRE/IFN-γ is a tetracycline-off-inducible system in which the glial fibrilary acidic protein (GFAP) transcriptional control region drives the expression of tTA, which in turn, binds to the TRE (tet responsive element) and initiates the expression of IFN-γ. Administration of doxycycline suppresses tTA DNA binding and IFN-γ expression, and doxycycline removal allows for temporally-controlled induction of IFN-γ expression (Gao et al., 1999).
IFN-γ-overexpressing mice were crossed to the PLP/SOCS1 mice in double-transgenic, (MBP/IFN-γ×PLP/SOCS1) and triple-transgenic (GFAP/tTA×TRE/IFN-γ×PLP/SOCS1) mating systems. MBP/IFN-γ×PLP/SOCS1 (172×PLP/SOCS1) mating was performed according to a standard mating protocol. The GFAP/tTA×TRE/IFN-γ×PLP/SOCS1 matings were performed in a 2-step mating process: GFAP/tTA mice were initially crossed to PLP/SOCS1 mice, and double-positive (184×PLP/SOCS1) offspring were then crossed to the TRE/IFN-γ lines 110 and 67, separately. This second mating step was performed according to the previously described “tet-off” protocol. Doxycycline 0.05 mg/ml (Sigma-Aldich) was added to the water of impregnated female mice until embryonic day 14, after which the animals were switched back to normal water, thereby allowing initiation of IFN-γ transcription, which peaks during the postnatal period (Lin et al., 2005).
The litters of the mating systems (F1 generation) were examined daily and sacrificed at postnatal day 21. Clinical evaluation included behavioral observation and challenged ladder walking to elicit tremor. Histological examination included quantitation of the number and density of oligodendrocytes and examination of the myelination patterns. Brain tissue was simultaneously obtained from each animal at the time of sacrifice to verify and measure the expression of IFN-γ and Flag-SOCS1 (see below). The clinical and histological findings were subsequently stratified according to genotype. All animal procedures were conducted in compliance with the National Institutes of Health Guide for Care and Use of Laboratory Animals and were approved by the Institutional Animal Care and Use Committee at The University of Chicago.
Oligodendrocyte cell density was assessed digitally using Axiovision software, at postnatal day 21, as previously described (Lin et al., 2005). The brains were sectioned sagittally through the corpus callosum dividing the brain in two symmetrical halves. Ten frozen sections from each half were prepared at 7 μm thickness, and numbered in the sequence of their preparation. The brains of three animals per study group were prepared in this fashion. Following the CC1 immunostaining the corresponding area of corpus callosum of each section was digitally selected and the corresponding total area obtained. CC1 cell counting was performed manually within the selected areas of each section, and the number of CC1 positive cells per square area (mm^2) calculated. The results were presented as mean±SD of CC1 (+) cells/mm^2 with n=3 animals per study group. […]

Setting [1] is: 184/67×PLP/SOCS1 mice (IFN-γ and SOCS1).
Setting [2] is: 184/110×PLP/SOCS1 mice (IFN-γ and SOCS1).

B1: IFN-γ: pleotropic cytokine secreted by activated T lymphocytes and natural killer cells; recombinant rat IFN-γ added to cultures or transgenically expressed in mouse CNS (protein, UniProt P01581 23-156, looked up)
Interferon gamma: QGTLIESLESLKNYFNSSSMDAMEGKSLLLDIWRNWQKDGNTKILESQIISFYLRLFEVLKDNQAISNNISVIESHLITNFFSNSKAKKDAFMSIAKFEVNNPQIQHKAVNELIRVIHQLSPESSLRKRKRSRC
Regarding B1, the Incidence of tremor runs as follows: (mice expressing IFN-γ only) 0%; (mice expressing both IFN-γ and SOCS1) 0%. The “G ratio (axon diameter/fiber diameter ratio)” value (184/67 mice (IFN-γ only)) is 0.95±0.04; the “G ratio (axon diameter/fiber diameter ratio)” value under setting [1] is reported as 0.82±0.08; the “G ratio (axon diameter/fiber diameter ratio)” value (184/110 mice (IFN-γ only), hypomyelination defined as G ratio >0.8) came out at 0.89±0.02; the “G ratio (axon diameter/fiber diameter ratio)” value under setting [2] worked out at 0.75±0.03. The “percentage of unmyelinated axons” value reads like this: (184/67 mice (IFN-γ only)) 57%±7; under setting [1], 17%±4.5; (184/110 mice (IFN-γ only)) 41%±6; under setting [2], 13%±3; (MBP/IFN-γ×PLP/SOCS1 (172×PLP/SOCS1) littermates, regardless of genotype) “less than 9%”. Moreover, the oligodendrocytes lost result (184/67 mice (IFN-γ only) versus wild-type) is “approximately 40%”; the oligodendrocytes lost result (184/67×PLP/SOCS1 mice (IFN-γ and SOCS1) versus PLP/SOCS1) is reported as “approximately 15%”; the oligodendrocytes lost entry (184/110 mice (IFN-γ only) versus wild-type) is given as “approximately 20%”; the oligodendrocytes lost result (184/110×PLP/SOCS1 mice (IFN-γ and SOCS1) versus PLP/SOCS1) is “approximately 8%”. The oligodendrocyte density was 79±9 CC1 (+) cells/mm^2 (184/67 mice (IFN-γ only), wild-type 144±5); 112±7 CC1 (+) cells/mm^2 (184/67×PLP/SOCS1 mice (IFN-γ and SOCS1), PLP/SOCS1 142±5); 115±8 CC1 (+) cells/mm^2 (184/110 mice (IFN-γ only), wild-type 146±6); 129±6 CC1 (+) cells/mm^2 (184/110×PLP/SOCS1 mice (IFN-γ and SOCS1), PLP/SOCS1 141±6).
